Results on two molecules are retold here after patent publication US20240343803A1 (SHANDONG SIMCERE BIOPHARMACEUTICAL, published 2024).

The target of assay [1] is T1, human PVRIG on FlpinCHO-PVRIG cells (human, UniProt Q6DKI7 41-326).
T1 construct: whole, on cells; also called FlpinCHO-hPVRIG; FlpinCHO-human PVRIG
T1 sequence (looked up): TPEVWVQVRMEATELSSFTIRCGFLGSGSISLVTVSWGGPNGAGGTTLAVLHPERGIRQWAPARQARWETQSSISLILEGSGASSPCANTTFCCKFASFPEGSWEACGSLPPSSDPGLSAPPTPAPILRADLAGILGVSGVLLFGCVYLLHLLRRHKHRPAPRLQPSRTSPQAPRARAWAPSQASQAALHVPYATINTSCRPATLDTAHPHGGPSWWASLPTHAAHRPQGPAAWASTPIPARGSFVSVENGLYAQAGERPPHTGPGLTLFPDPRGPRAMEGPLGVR
As to the kind of experiment: FACS, FlpinCHO-PVRIG cells. How it is done: After discarding the cell culture medium, the cells were rinsed with PBS and digested for 8-10 minutes by adding 1 mL Versene (Gibico, 15040-066). The Ham's F12 (Gibico, 21127-022) complete medium containing 10% FBS was then added to terminate the digestion and acquire cell suspension. After counting with a cell counter (Beckman Coulter, Vi-CELL), an appropriate amount of cell suspension was centrifuged at 350×g to remove the supernatant, washed twice with PBS, stained with Zombie violet (Biolegend, 423114) and incubated at room temperature for 20 minutes. After incubation, the cells were added with staining buffer (2% FBS+PBS) to stop staining, centrifuged at 350×g to remove the supernatant, washed twice and resuspended with staining buffer to a density of 2×10⁶ cells/mL. The cells were plated into a 96-well plate (50 μL of cell suspension per well) for further use. The antibodies were diluted from the highest concentration of 46 nM (two-fold concentration) with staining buffer by 3.3-fold serial dilution. The diluted antibodies were added to the well containing 50 μL of cell suspension. The plate was placed on a microplate shaker at 400 rpm for 1 minute to fully mix the antibodies and cells, and then incubated at 4° C. for 30 minutes. After the incubation, the cells were washed twice with staining buffer (200 μL per well) and centrifuged at 350×g for 5 minutes to discard the supernatant. The PE goat anti-human IgG Fc antibody (ebioscience, 12-4998-82) was diluted 250 times with staining buffer, added into the washed wells (100 μL per well), mixed well, and stained at 4° C. for 30 minutes. After staining, the cells were washed twice with staining buffer, finally resuspended with 200 μL staining buffer and analyzed by flow cytometry (BD, Canto II). The stronger the signal, the stronger the ability of the antibodies binds to PVRIG. An antibody binding curve was drawn with concentration of antibodies as the abscissa and the corresponding Mean Fluorescence Intensity (MFI) as the ordinate. The AUC value of the curve was calculated by using a Four Parameter Logistic Fit (GraphPadPrism9).
In general terms: Flow cytometry measures light scatter and fluorescence of single cells or particles in a stream.

Assay [2] concerns the target T2, human PVRIG-his (AcroBiosystems, Cat NO. PVG-H52H4) (human, UniProt Q6DKI7 41-171, limits assumed).
T2 construct: treated as the same protein; also called human PVRIG-His protein; Human PVRIG-His, Acro C227P1-9ARF1-T4
T2 sequence (looked up): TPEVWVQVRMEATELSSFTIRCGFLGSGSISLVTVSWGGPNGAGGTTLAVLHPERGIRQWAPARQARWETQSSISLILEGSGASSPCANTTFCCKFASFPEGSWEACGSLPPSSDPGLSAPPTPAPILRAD
The assay is described as follows: competition ELISA on coated human PVRIG-his; blocked ligand human PVRL2-mFc. How it is done:
The ELISA plate was pre-coated with 100 μL/well of 0.5 μg/mL human PVRIG-his protein (AcroBiosystems, Cat NO. PVG-H52H4). The tested anti-PVRIG antibodies were diluted from the highest concentration of 16 nM (two-fold concentration). The diluted antibodies were mixed with 18 ng/ml human PVRL2-mFc (AcroBiosystems, Cat NO. CD2-H5257) in equal volume, added into the plate (100 μL/well), and incubated with shaking at room temperature for 2.0 hours. […] A HRP substrate, TMB (Thermo, Cat NO. 34029) was added into wells after washing the plate again for color development. After adding a termination solution to terminate the reaction, the absorbance value was read by a microplate reader (MD i3×). An inhibiting curve was drawn with concentration of antibodies as the abscissa and the corresponding OD value as the ordinate. The IC50 value was calculated by using a Four Parameter Logistic Fit (GraphPadPrism9). The smaller the IC50 value, the stronger the ability of the antibodies inhibits the binding between PVRIG and PVRL2. The positive and negative controls are the same as in Example 8.

In assay [3] the target is T3, human PVRIG-mFc protein (Acro, PVG-H5253) (human, UniProt Q6DKI7 41-171, limits assumed).
T3 construct: bought reagent; also called PVRIG-ECD-mFc
T3 sequence (looked up): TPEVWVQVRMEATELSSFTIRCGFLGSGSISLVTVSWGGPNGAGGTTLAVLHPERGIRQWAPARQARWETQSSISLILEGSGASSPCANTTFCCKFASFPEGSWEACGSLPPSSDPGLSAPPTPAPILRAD
As to the kind of experiment: competition FACS; blocked: human PVRIG-mFc binding to CHO-K1-CD112 cells. As for the experimental part:
After incubation, the cells were added with staining buffer (2% FBS+PBS) to stop staining, centrifuged at 350×g to remove the supernatant, washed twice and resuspended with staining buffer to a density of 1×10⁶ cells/mL. The cells were plated into a 96-well plate (50 μL of cell suspension per well) for further use. A working solution of human PVRIG-mFc protein (Acro, PVG-H5253) prepared with staining buffer, 1 μg/mL (four-fold concentration), was added into a 96-well plate (50 μL PVRIG-mFc working solution per well). […] The diluted antibodies were added to the well containing 50 μL of PVRIG-mFc. The plate was placed on a microplate shaker at 400 rpm for 1 minute to fully mix the antibodies and PVRIG-mFc proteins, and then incubated at 4° C. for 30 minutes. After the incubation, the cell suspension prepared above (100 μL) was added into the wells, gently mixed with the pipette tip and incubated at 4° C. for 30 minutes. After the incubation, the cells were washed twice with staining buffer (200 μL per well) and centrifuged at 350×g for 5 minutes to discard the supernatant. The PE goat anti-mouse IgG Fc antibody (Biolegend, 405337) was diluted 250 times with staining buffer, added into the washed wells (100 μL per well), mixed well, and stained at 4° C. for 30 minutes. After staining, the cells were washed twice with staining buffer, finally resuspended with 200 μL staining buffer and analyzed by flow cytometry (BD, Canto II). The weaker the fluorescence signal, the stronger the ability of the antibodies blocks the binding of CHO-K1 human CD112 cells to the PVRIG-mFc protein. An antibody binding curve was drawn with concentration of antibodies as the abscissa and the corresponding Mean Fluorescence Intensity (MFI) as the ordinate. The IC50 value of the antibodies and the AUC value of the binding curve were calculated by using a Four Parameter Logistic Fit (GraphPadPrism9). The smaller the IC50 value and AUC value, the stronger the ability of the antibodies competes with CHO-K1-CD112 cells to bind to human PVRIG-mFc protein.

B1: PVRIG-A11 (VHH)
VHH: QLQLVESGGGLVQPGGSLRLSCAASGFTDDYYAIGWFRQAPGKEREGVSCISGSGGSTNYEDSVKGRFAISRDNAKNMVYLQMNDLKPEDTAVYYCAADPFWSAPCTGHNDRYFDVWGQGTLVTVSS
notes: tested as VHH-hinge-CH2-CH3 (human IgG1-Fc); not shown: human IgG1 hinge-CH2-CH3
As to B1, the “EC50 (read off the curve)” value in assay [1] was around 0.1 nM. For the same molecule, the “IC50 (read off the curve)” value in assay [2] was around 0.8 nM; in assay [3] it was around 0.9 nM.

B2: PVRIG-A117 (VHH)
VHH: EVQVVESGGGLVQAGGSLRLSCTASEHIYDLYIMGWYRQAPGKDRELVATITYTGSIYIADSVKDRFTISRGNAKNTVSLQMSGLKPEDTAVYYCNADPSGLGRKLYWGQGTQVTVSS
notes: as for B1
Regarding B2, the “EC50 (read off the curve)” value in assay [1] was around 0.3 nM. In addition, the “IC50 (read off the curve)” value in assay [2] is around 0.5 nM; in assay [3], around 1 nM.

In general, EC50 (read off the curve) refers to the concentration at which the effect is half-maximal. Low values mean higher potency in that assay, high ones lower potency in that assay.
